Measurements: patent publication US20120027773A1 (AVEO PHARMACEUTICALS, published 2012)

B1: 07F01 (antibody, mouse IgG1, kappa, V domains shown)
VH: EVKLLESGGGLVQPGGSLKLSCAASGFDFSRHWMSWVRLAPGKGLEWIAEINPDSRTINYTPSLKEKFIISRDNAKNSLFLQMNRVRSEDTALYYCARRVRIHYYGAMDCWGQGTSVTVSS
VL: DIVLTQSQKIVSTSVGARVSVTCKASQNVGSSLVWYQQKPGQSPKTLIYSASFRYSGVPDRFTGSGSGTDFTLTISNVQSEDLADYFCQQYNNYPLTFGAGTKLELKR
notes: Murine hybridoma monoclonal, IgG1/kappa; also called mu07F01; antibody 07F01
B2: 29B06 (antibody, mouse IgG1, kappa)
heavy: EVQLQESGPSLVKPSQTLSLTCSVTGDSITSGYWNWIRKFPGNKLEYMGYISYSGKTYYNPSLKSRISITRDTSKNHYYLQLISVTAEDTATYYCARSKYDYAMDYWGQGTSVTVSSAKTTPPSVYPLAPGSAAQTNSMVTLGCLVKGYFPEPVTVTWNSGSLSSGVHTFPAVLQSDLYTLSSSVTVPSSTWPSETVTCNVAHPASSTKVDKKIVPRDCGCKPCICTVPEVSSVFIFPPKPKDVLTITLTPKVTCVVVDISKDDPEVQFSWFVDDVEVHTAQTQPREEQFNSTFRSVSELPIMHQDWLNGKEFKCRVNSAAFPAPIEKTISKTKGRPKAPQVYTIPPPKEQMAKDKVSLTCMITDFFPEDITVEWQWNGQPAENYKNTQPIMDTDGSYFVYSKLNVQKSNWEAGNTFTCSVLHEGLHNHHTEKSLSHSPGK
light: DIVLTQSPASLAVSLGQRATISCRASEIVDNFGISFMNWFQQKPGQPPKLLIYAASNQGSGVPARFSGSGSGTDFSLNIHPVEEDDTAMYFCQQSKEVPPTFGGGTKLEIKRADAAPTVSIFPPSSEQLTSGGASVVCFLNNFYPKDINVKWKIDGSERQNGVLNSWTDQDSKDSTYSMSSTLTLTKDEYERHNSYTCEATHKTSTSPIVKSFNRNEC
notes: Murine hybridoma monoclonal, IgG1/kappa; also called mu29B06; antibody 29B06

Columns and labels:
[1] = molecular target: T1, human wild-type RON (cell surface) (human, UniProt Q04912 25-1400); assay: cell-based or functional assay
[2] = molecular target: T1, human wild-type RON (cell surface); assay: cell-based or functional assay; remark: listed apart in the source
[3] = molecular target: T1, human wild-type RON (cell surface); assay: FACS, 10 ug/ml antibody, PC3 cells, 4 C
Procedure: Binding to cell surface wild-type RON and delta 160 RON at 4° C. was determined for antibodies 07F01, 12B11, 17F06, 18H09, and 29B06, using FACS. Cells expressing wild-type RON (PC3), and cells expressing delta 160 RON (HT-29), were harvested using cell dissociation buffer (Invitrogen), washed twice with FACS buffer (0.5% BSA PBS) and treated with CytoQ Antibody diluent and FC receptor block (Innovex). Purified antibodies were diluted at a concentration of 10 μg/ml, in FACS buffer. Cells were incubated with 100 μl of antibody mix for one hour, washed with FACS buffer three times, and incubated for 45 minutes with goat anti-mouse PE conjugated antibody (Jackson Immunoresearch Laboratories). Cells were washed three times with FACS buffer, resuspended in 300 μl of FACS buffer and analyzed using a Beckman Coulter Cytomics FC 500 FACS instrument.

[4] = molecular target: T2, recombinant human RON-ECD/mFc fusion protein (human, UniProt Q04912 25-957); assay: SPR, Ab captured on anti-mouse IgG, 37 C, AVG
T2 construct: extracellular domain; also called rhRON ECD/mFc; rhRon ECD/mFc; not shown: THXmFC: Thrombin/His tag/Factor Xa-AJ mouse IgG-Fc
Procedure: (§1) The binding affinities and kinetics of binding of antibodies 07F01, 29B06, 17F06, 18H09, and 12B11 to recombinant human RON-ECD/mFc fusion protein (rhRON ECD/mFc) and recombinant human RON SEMA and PSI domains (rhRON SEMA+PSI) (R&D Systems, Inc., Minneapolis, Minn.) were measured by surface plasmon resonance, using a Biacore T100 instrument (GE Healthcare, Piscataway, N.J.).
(§2) Rabbit anti-mouse IgGs (GE Healthcare) were immobilized on carboxymethylated dextran CM4 sensor chips (GE Healthcare) by amine coupling, according to a standard protocol. Analyses were performed at 25° C. and 37° C., using PBS containing 0.05% surfactant P20 as running buffer. The antibodies were captured in individual flow cells at a flow rate of 10 μl/min. Injection time was varied for each antibody to yield an Rmax between 30 and 60 RU. 250 μg/mL mouse Fc were injected at 30 μl/min for 120 seconds to block non-specific binding of antibodies to Fc portion of the protein when needed. Buffer, rhRon ECD/mFc or rhRON SEMA+PSI diluted in running buffer was injected sequentially over a reference surface (no antibody captured) and the active surface (antibody to be tested) for 300 seconds at 60 μl/minute. The dissociation phase was monitored for up to 3600 seconds. The surface was then regenerated with two 60-second injections of 10 mM Glycine-HCl, pH 1.7, at a flow rate of 60 μl/min. The rhRON ECD/mFc or rhRON SEMA+PSI concentration range tested was 0.625 nM to 20 nM.
Kinetic parameters were determined using the kinetic function of the BIAevaluation software (GE Healthcare) with double reference subtraction. Kinetic parameters for each antibody, kₐ (association rate constant), kd (dissociation rate constant) and KD (equilibrium dissociation constant) were determined.

[5] = molecular target: T3, recombinant human RON SEMA and PSI domains (human, UniProt Q04912 25-571); assay: SPR, Ab captured on anti-mouse IgG, 25 C, AVG
T3 construct: domain: SEMA+PSI; Commercial protein (R&D Systems); also called rhRON SEMA+PSI; hRON SEMA+PSI
Procedure: as §1, §2

[6] = molecular target: T3, recombinant human RON SEMA and PSI …; assay: SPR, Ab captured on anti-mouse IgG, 37 C, AVG
Procedure: as §1, §2

[7] = molecular target: T3, recombinant human RON SEMA and PSI …; assay: ECL competition, MSP binding to coated hRON SEMA+PSI; competitor MSP; average
Procedure: (§3) The biochemical neutralization assay measures inhibition of MSP binding to hRON by antibodies in hybridoma supernatants, using electrochemiluminescence (ECL). MA2400 96-well high binding plates (Meso Scale Discovery) were coated with 25 μl of 0.42 μg/mL hRON SEMA+PSI (an N-terminal portion of the ECD of hRON; R&D Systems) in PBS for one hour at room temperature with agitation. The plates were washed four times with PBS+0.1% Tween-20 (PBST), and blocked with 150 μl of charcoal-stripped fetal bovine serum (FBS) (Gibco). The hybridoma supernatant were added and incubated for 45 minutes at room temperature. After incubation, 5 μl of MSP (3 μg/mL) in charcoal stripped FBS was added to each well, and incubated for 45 minutes. The plate was washed four times with PBST, and 25 μl of 1 μg/mL biotinylated anti-MSP antibody (R&D Systems) was added to the plates for one hour at room temperature with agitation. The plates were washed four times with PBST, and incubated with 25 μl of 1 μg/mL ST-streptavidin (Meso Scale Discovery) for one hour at room temperature with agitation. The plates were washed four times with PBST, and 150 μl read buffer (Meso Scale Discovery) was added to each well before the plates were analyzed on a Sector Imager 2400 (Meso Scale Discovery) instrument. Antibodies 07F01, 18H09 and 29B06 each blocked MSP binding to hRON SEMA+PSI in this neutralization assay.
(§4) Antibodies 07F01, 12B11, 17F06, 18H09, and 29B06 were tested for inhibition of MSP binding to hRON SEMA+PSI, as measured by electrochemiluminescence (ECL) assay as described in Example 3. The antibodies (concentration range: 0.006-10 μg/mL) were incubated for 45 minutes at room temperature.

[8] = molecular target: T3, recombinant human RON SEMA and PSI …; assay: ECL competition, MSP binding to coated hRON SEMA+PSI; competitor MSP; average n=3
Procedure: as §3, §4

[9] = molecular target: T3, recombinant human RON SEMA and PSI …; assay: ECL competition assay: antibody titrated on plate-coated hRON SEMA+PSI; blocked ligand MSP, detected with biotinylated anti-MSP antibody
Procedure: as §3, §4

Binder	Mean IC50 (nM), inhibition of MSP-dependent ERK phosphorylation, T47D cells [1] [nM]	Percent Inhibition of MSP-induced HPAF-II cell migration, antibody 2 ug/ml [2] [%]	PC3 % cell surface binding [3] [%]	Kd [4] [nM]	koff [4] [s⁻¹]	kon [4] [M⁻¹ s⁻¹]	Kd [5] [nM]	koff [5] [s⁻¹]	kon [5] [M⁻¹ s⁻¹]	Kd [6] [nM]	koff [6] [s⁻¹]	kon [6] [M⁻¹ s⁻¹]	Maximum Neutralization (%) [7] [%]	IC50 [8] [nM]	IC50 (read off the curve) [9] [nM]
B1	0.07	95.6	99.3	0.21	0.00035	2.1e+06	0.088	0.00036	5.2e+06	0.4	0.0008	2e+06	88.3	0.26	~0.3
B2	0.44	96.8	99.1	0.28	0.0007	2.3e+06	0.18	7e-05	420000	1.3	0.00069	520000	87.6	1.11	~1
